Measurements published in patent US11278600B2, “Human alpha-galactosidase variants” (Codexis, Inc., priority 2014, dated 2022).
Changes are numbered by the printed parent chain.

B1: 60 (protein)
chain: LDNGLARTPTMGWLHWERFMCNLDCQEEPDSCISEKLFMEMAELMVSEGWKDAGYEYLCIDDCWMAPQRDSEGRLQADPQRFPHGIRQLANYVHSKGLKLGIYADVGNKTCAGFPGSFGYYDIDAQTFADWGVDLLKFDGCYCDSLENLADGYKHMSLALNRTGRSIVYSCEWPLYMWPFQKPNYTEIRQYCNHWRNFADIDDSWKSIKSILDWTSFNQERIVDVAGPGGWNDPDMLVIGNFGLSWNQQVTQMALWAIMAAPLFMSNDLRHISPQAKALLQDKDVIAINQDPLGKQGYQLRQGDNFEVWERPLSGLAWAVAMINRQEIGGPRSYTIAVASLGKGVACNPACFITQLLPVKRKLGTYEWTSRLRSHINPTGTVLLQLENTMQMSKDLLL
modifications: Synthetic Polypeptide sequence of Variant No. 60 of mature Human GLA
B2: 61 (protein)
chain: B1 chain with T365V
modifications: Synthetic Polypeptide sequence of Variant No. 61 of mature Human GLA
B3: 62 (protein)
chain: B1 chain with G303Q, T365F, R373V
modifications: Synthetic Polypeptide sequence of Variant No. 62 of mature Human GLA
B4: 63 (protein)
chain: B1 chain with H155A, T365F
modifications: Synthetic Polypeptide sequence of Variant No. 63 of mature Human GLA
B5: 64 (protein)
chain: B1 chain with H155L, T365F
modifications: Synthetic Polypeptide sequence of Variant No. 64 of mature Human GLA
B6: 65 (protein)
chain: B1 chain with H155R, T365F
modifications: Synthetic Polypeptide sequence of Variant No. 65 of mature Human GLA
B7: 66 (protein)
chain: B1 chain with H155T, T365F
modifications: Synthetic Polypeptide sequence of Variant No. 66 of mature Human GLA
B8: 67 (protein)
chain: B1 chain with H155E, T365F
modifications: Synthetic Polypeptide sequence of Variant No. 67 of mature Human GLA
B9: 68 (protein)
chain: B1 chain with H84S, T365F
modifications: Synthetic Polypeptide sequence of Variant No. 68 of mature Human GLA
B10: 69 (protein)
chain: B1 chain with I102L, T365F
modifications: Synthetic Polypeptide sequence of Variant No. 69 of mature Human GLA
B11: 70 (protein)
chain: B1 chain with I102L, T365F, K394V
modifications: Synthetic Polypeptide sequence of Variant No. 70 of mature Human GLA
B12: 71 (protein)
chain: B1 chain with I123T, T365F, T369N
modifications: Synthetic Polypeptide sequence of Variant No. 71 of mature Human GLA
B13: 72 (protein)
chain: B1 chain with I167V, T365F
modifications: Synthetic Polypeptide sequence of Variant No. 72 of mature Human GLA
B14: 73 (protein)
chain: B1 chain with K206A, T365F, K394L, D395K, L396D
modifications: Synthetic Polypeptide sequence of Variant No. 73
B15: 74 (protein)
chain: B1 chain with K206M, T365F
modifications: Synthetic Polypeptide sequence of Variant No. 74 of mature Human GLA
B16: 75 (protein)
chain: B1 chain with K206Q, T365F
modifications: Synthetic Polypeptide sequence of Variant No. 75 of mature Human GLA

Test: HTP-analysis of supernatants pretreated with base (MUGal hydrolysis)
Format: biochemical
Details: challenge at pH 7.1; activity of the variant/activity of WT GLA (SEQ ID NO: 5); yeast supernatant
In short: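 GLA variants were secreted by transformed INVSc1 yeast grown 66-84 h at 30° C. Supernatants were exposed to neutral-to-basic buffers (pH 7.0-9.7) at 37° C for 1-18 h, then assayed with MUGal in acidic citrate/McIlvaine buffer, with fluorescence read after quenching.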

Row | Molecule | Relative Activity of GLA Variants After Challenge at pH 7.1
1 | B1 | + (+ = 0.5 to 1.5 relative activity over WT GLA (SEQ ID NO: 5))
2 | B2 | ++ (++ = >1.5 to 2.5 relative activity over WT GLA (SEQ ID NO: 5))
3 | B3 | ++ (++ = >1.5 to 2.5 relative activity over WT GLA (SEQ ID NO: 5))
4 | B4 | ++ (++ = >1.5 to 2.5 relative activity over WT GLA (SEQ ID NO: 5))
5 | B5 | ++ (++ = >1.5 to 2.5 relative activity over WT GLA (SEQ ID NO: 5))
6 | B6 | + (+ = 0.5 to 1.5 relative activity over WT GLA (SEQ ID NO: 5))
7 | B7 | + (+ = 0.5 to 1.5 relative activity over WT GLA (SEQ ID NO: 5))
8 | B8 | ++ (++ = >1.5 to 2.5 relative activity over WT GLA (SEQ ID NO: 5))
9 | B9 | + (+ = 0.5 to 1.5 relative activity over WT GLA (SEQ ID NO: 5))
10 | B10 | + (+ = 0.5 to 1.5 relative activity over WT GLA (SEQ ID NO: 5))
11 | B11 | + (+ = 0.5 to 1.5 relative activity over WT GLA (SEQ ID NO: 5))
12 | B12 | ++ (++ = >1.5 to 2.5 relative activity over WT GLA (SEQ ID NO: 5))
13 | B13 | + (+ = 0.5 to 1.5 relative activity over WT GLA (SEQ ID NO: 5))
14 | B14 | ++ (++ = >1.5 to 2.5 relative activity over WT GLA (SEQ ID NO: 5))
15 | B15 | ++ (++ = >1.5 to 2.5 relative activity over WT GLA (SEQ ID NO: 5))
16 | B16 | ++ (++ = >1.5 to 2.5 relative activity over WT GLA (SEQ ID NO: 5))

Test: HTP-analysis of supernatants pretreated with acid (MUGal hydrolysis)
Format: biochemical
Details: challenge at pH 4.2; activity of the variant/activity of WT GLA (SEQ ID NO: 5); yeast supernatant
In short: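 MUGal hydrolysis was tracked by fluorescence (Ex 355 nm, Em 448 nm) after a 30-180 min reaction at 37° C. in pH 4.8 McIlvaine/citrate buffer, stopped with 1 M sodium carbonate. Beforehand, yeast (INVSc1) culture supernatants carrying GLA variants were held 1-3 h at 37° C. in acidic McIlvaine buffer, pH 3.3-4.3.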

Row | Molecule | Relative Activity of GLA Variants After Challenge at pH 4.2
17 | B1 | + (+ = 0.5 to 1.5 relative activity over WT GLA (SEQ ID NO: 5))
18 | B2 | ++ (++ = >1.5 to 2.5 relative activity over WT GLA (SEQ ID NO: 5))
19 | B3 | + (+ = 0.5 to 1.5 relative activity over WT GLA (SEQ ID NO: 5))
20 | B4 | + (+ = 0.5 to 1.5 relative activity over WT GLA (SEQ ID NO: 5))
21 | B5 | + (+ = 0.5 to 1.5 relative activity over WT GLA (SEQ ID NO: 5))
22 | B6 | + (+ = 0.5 to 1.5 relative activity over WT GLA (SEQ ID NO: 5))
23 | B7 | + (+ = 0.5 to 1.5 relative activity over WT GLA (SEQ ID NO: 5))
24 | B8 | + (+ = 0.5 to 1.5 relative activity over WT GLA (SEQ ID NO: 5))
25 | B9 | ++ (++ = >1.5 to 2.5 relative activity over WT GLA (SEQ ID NO: 5))
26 | B10 | + (+ = 0.5 to 1.5 relative activity over WT GLA (SEQ ID NO: 5))
27 | B11 | + (+ = 0.5 to 1.5 relative activity over WT GLA (SEQ ID NO: 5))
28 | B12 | + (+ = 0.5 to 1.5 relative activity over WT GLA (SEQ ID NO: 5))
29 | B13 | + (+ = 0.5 to 1.5 relative activity over WT GLA (SEQ ID NO: 5))
30 | B14 | +++ (+++ = >2.5 relative activity over WT GLA (SEQ ID NO: 5))
31 | B15 | +++ (+++ = >2.5 relative activity over WT GLA (SEQ ID NO: 5))
32 | B16 | +++ (+++ = >2.5 relative activity over WT GLA (SEQ ID NO: 5))

Test: HTP-analysis of yeast culture supernatants, no challenge (MUGal hydrolysis)
Format: biochemical
Details: activity of the variant/activity of WT GLA (SEQ ID NO: 5), yeast supernatant
In short: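 GLA variants were expressed in INVSc1 yeast grown in SD-Ura broth with glucose at 30° C., and culture supernatants were collected after 66-84 h. Supernatant was mixed with McIlvaine buffer pH 4.8 and MUGal (2 mM stock) in 50 mM citrate, 200 mM KCl, pH 4.6, incubated at 37° C. for 30-180 minutes, then quenched with sodium carbonate.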

Row | Molecule | Relative Activity of GLA Variants After No Challenge (NC)
33 | B1 | + (+ = 0.5 to 1.5 relative activity over WT GLA (SEQ ID NO: 5))
34 | B2 | ++ (++ = >1.5 to 2.5 relative activity over WT GLA (SEQ ID NO: 5))
35 | B3 | ++ (++ = >1.5 to 2.5 relative activity over WT GLA (SEQ ID NO: 5))
36 | B4 | + (+ = 0.5 to 1.5 relative activity over WT GLA (SEQ ID NO: 5))
37 | B5 | + (+ = 0.5 to 1.5 relative activity over WT GLA (SEQ ID NO: 5))
38 | B6 | + (+ = 0.5 to 1.5 relative activity over WT GLA (SEQ ID NO: 5))
39 | B7 | + (+ = 0.5 to 1.5 relative activity over WT GLA (SEQ ID NO: 5))
40 | B8 | ++ (++ = >1.5 to 2.5 relative activity over WT GLA (SEQ ID NO: 5))
41 | B9 | + (+ = 0.5 to 1.5 relative activity over WT GLA (SEQ ID NO: 5))
42 | B10 | + (+ = 0.5 to 1.5 relative activity over WT GLA (SEQ ID NO: 5))
43 | B11 | + (+ = 0.5 to 1.5 relative activity over WT GLA (SEQ ID NO: 5))
44 | B12 | ++ (++ = >1.5 to 2.5 relative activity over WT GLA (SEQ ID NO: 5))
45 | B13 | + (+ = 0.5 to 1.5 relative activity over WT GLA (SEQ ID NO: 5))
46 | B14 | + (+ = 0.5 to 1.5 relative activity over WT GLA (SEQ ID NO: 5))
47 | B15 | + (+ = 0.5 to 1.5 relative activity over WT GLA (SEQ ID NO: 5))
48 | B16 | + (+ = 0.5 to 1.5 relative activity over WT GLA (SEQ ID NO: 5))
